Consider one molecule from patent US20120039878A1.

For assay [1], the target named is murine monoclonal antibody 7D8 (ATCC Accession Number PTA-9468). Description: Competition ELISA; human AA amyloid in solution competing with adsorbed mouse AA (AEF) for mAb 7D8. (In an ELISA, binding on a coated surface is turned into a signal by an enzyme label.)
In assay [2] the target is the 3 mAbs (2A4, 8G9 and 7D8) as a group. In words: Competition ELISA; told for the three mAbs together.
Assay [3] concerns the target murine monoclonal antibody 2A4 (ATCC Accession Number PTA-9662). In words: Competition ELISA; human AA amyloid in solution competing with adsorbed mouse AA (AEF) for mAb 2A4.
Assay [4] concerns the target murine monoclonal antibody 8G9. Description: Competition ELISA; human AA amyloid in solution competing with adsorbed mouse AA (AEF) for mAb 8G9.

Sequence of murine monoclonal antibody 2A4 (ATCC Accession Number PTA-9662) (VL, as listed by the source, chain 1 of 2): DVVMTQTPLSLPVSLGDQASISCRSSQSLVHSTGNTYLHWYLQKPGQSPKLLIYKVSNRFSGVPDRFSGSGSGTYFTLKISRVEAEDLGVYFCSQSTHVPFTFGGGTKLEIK
Sequence of murine monoclonal antibody 2A4 (ATCC Accession Number PTA-9662) (VH, as listed by the source, chain 2 of 2): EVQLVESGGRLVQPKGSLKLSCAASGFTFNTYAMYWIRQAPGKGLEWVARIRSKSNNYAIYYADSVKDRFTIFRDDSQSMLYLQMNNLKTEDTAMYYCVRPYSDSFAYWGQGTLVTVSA
Sequence of murine monoclonal antibody 8G9 (VH, as listed by the source, chain 2 of 2): as above
Sequence of murine monoclonal antibody 7D8 (ATCC Accession Number PTA-9468) (VL, as listed by the source, chain 1 of 2): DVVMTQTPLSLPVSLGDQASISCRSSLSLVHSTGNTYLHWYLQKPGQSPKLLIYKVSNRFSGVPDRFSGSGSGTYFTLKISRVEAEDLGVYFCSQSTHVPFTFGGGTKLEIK
Sequence of murine monoclonal antibody 7D8 (ATCC Accession Number PTA-9468) (VH, as listed by the source, chain 2 of 2): as the sequence (VH, as listed by the source, chain 2 of 2) above

B1: human AA amyloid (human renal AA amyloid extract; AA deposits in human tissue) (protein, UniProt P0DJI8 19-94, looked up)
Amyloid protein A: RSFFSFLGEAFDGARDMWRAYSDMREANYIGSDKYFHARGNYDAAKRGPGGAWAAEVITDARENIQRFFGHGAEDS
modifications: Amyloid protein A amyloid fibrils
Usually IC50 stands for the concentration at which inhibition is half-maximal. A high value points to weaker potency. For B1, the half-maximal inhibitory concentration (IC50) is greater than 881 mg/L in assay [1], greater than 212 mg/L in assay [3] and greater than 120 mg/L in assay [4]. Moreover, the fold of IC50 against murine AEF in solution in assay [2] lay within 6 to 44 fold.
